Assay results: patent publication US20240209106A1 (BEIGENE SWITZERLAND, published 2024)

What was measured:
[1] = target: T1, GPC3 (protein used for the TAA KD of Table 23) (UniProt P51654 25-559, limits assumed); assay: method and GPC3 construct not stated (TAA KD)
T1 construct: also called Glypican 3

[2] = target: T2, Glypican 3 (GPC3) on cells (human, UniProt P51654 25-554); assay: flow cytometry on HepG2 cells [panel C]
T2 construct: whole, on cells; also called HepG2; Huh7

[3] = target: T3, human CD137 ECD (AA 24-183) (human, UniProt Q07011 24-183); assay: method and huCD137 construct not stated
T3 construct: also called huCD137

human CD137 ECD-mIgG2a [4] = target: human CD137 ECD-mIgG2a (human); assay: SPR, antibody captured on anti-human Fc surface; analyte taken as human CD137 ECD-mIgG2a
human CD137 ECD-mIgG2a (human), sequence (chain, as listed by the source limits assumed): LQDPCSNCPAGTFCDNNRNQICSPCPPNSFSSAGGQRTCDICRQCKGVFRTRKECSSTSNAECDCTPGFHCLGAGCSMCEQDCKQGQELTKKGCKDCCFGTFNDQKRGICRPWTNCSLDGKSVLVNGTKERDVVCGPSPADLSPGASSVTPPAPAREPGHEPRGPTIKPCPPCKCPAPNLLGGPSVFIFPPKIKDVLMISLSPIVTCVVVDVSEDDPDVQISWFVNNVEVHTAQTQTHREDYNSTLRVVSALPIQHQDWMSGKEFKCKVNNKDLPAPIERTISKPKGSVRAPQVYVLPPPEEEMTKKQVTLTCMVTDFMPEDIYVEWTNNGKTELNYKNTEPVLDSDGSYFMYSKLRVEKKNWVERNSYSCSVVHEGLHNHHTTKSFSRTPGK

human CD137 ECD-mIgG2a [5] = target: human CD137 ECD-mIgG2a (human); assay: SPR, multispecific antibody captured on anti-human IgG Fc chip, human CD137 ECD-mIgG2a flowed over; Table 15, comparison run with the affinity-matured variants
human CD137 ECD-mIgG2a [6] = target: human CD137 ECD-mIgG2a (human); assay: SPR, human CD137 ECD-mIgG2a
[7] = target: T4, full-length human CD137 (huCD137) (human, UniProt Q07011 24-255); assay: flow cytometry on Hut78/huCD137 cells
T4 construct: On transduced Hut78 cells (Hut78/huCD137), transiently on HEK293 cells, or natively on PBMC/T cells; also called TNFRSF9; 4-1BB
T4 sequence (Q07011 24-255 limits assumed): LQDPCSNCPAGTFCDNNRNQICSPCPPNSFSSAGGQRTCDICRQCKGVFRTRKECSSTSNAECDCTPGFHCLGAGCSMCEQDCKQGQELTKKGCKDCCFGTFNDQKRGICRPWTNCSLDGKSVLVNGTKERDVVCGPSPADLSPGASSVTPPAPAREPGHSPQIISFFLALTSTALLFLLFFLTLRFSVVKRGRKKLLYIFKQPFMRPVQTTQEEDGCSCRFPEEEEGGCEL

T2 sequence (P51654 25-554 limits assumed): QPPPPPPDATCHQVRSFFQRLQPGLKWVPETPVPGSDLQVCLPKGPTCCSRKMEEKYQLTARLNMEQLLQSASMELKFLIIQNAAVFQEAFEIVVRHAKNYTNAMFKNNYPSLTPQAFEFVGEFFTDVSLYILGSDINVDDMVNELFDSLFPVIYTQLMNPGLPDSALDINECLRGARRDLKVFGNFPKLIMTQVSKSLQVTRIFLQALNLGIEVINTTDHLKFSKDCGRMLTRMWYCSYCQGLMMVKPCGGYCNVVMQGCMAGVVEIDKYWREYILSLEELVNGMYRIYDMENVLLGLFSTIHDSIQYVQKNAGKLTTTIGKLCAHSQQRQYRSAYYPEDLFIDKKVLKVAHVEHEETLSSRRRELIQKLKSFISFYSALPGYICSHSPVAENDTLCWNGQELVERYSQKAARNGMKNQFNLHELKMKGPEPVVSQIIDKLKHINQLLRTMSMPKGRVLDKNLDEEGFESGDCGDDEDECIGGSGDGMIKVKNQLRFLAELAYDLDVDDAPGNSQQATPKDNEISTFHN
T1 sequence (P51654 25-559 limits assumed): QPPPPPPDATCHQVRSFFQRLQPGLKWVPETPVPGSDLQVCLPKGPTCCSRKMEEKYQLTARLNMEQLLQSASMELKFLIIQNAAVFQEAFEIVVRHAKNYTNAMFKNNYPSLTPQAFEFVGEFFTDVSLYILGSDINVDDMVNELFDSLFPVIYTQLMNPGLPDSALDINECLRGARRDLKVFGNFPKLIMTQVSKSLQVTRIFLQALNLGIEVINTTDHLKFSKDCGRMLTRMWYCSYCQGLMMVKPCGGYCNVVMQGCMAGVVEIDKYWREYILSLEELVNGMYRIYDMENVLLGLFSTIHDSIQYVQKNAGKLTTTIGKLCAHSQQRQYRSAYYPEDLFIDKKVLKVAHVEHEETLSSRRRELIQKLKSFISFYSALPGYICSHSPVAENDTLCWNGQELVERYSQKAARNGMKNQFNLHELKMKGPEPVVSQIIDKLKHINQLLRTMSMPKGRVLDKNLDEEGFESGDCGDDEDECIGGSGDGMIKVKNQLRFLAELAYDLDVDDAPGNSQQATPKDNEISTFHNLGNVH

Row | Binder | Kd [1] [nM] | EC50 (read off the curve) [2] [µg/mL] | Kd [3] [nM] | Kd (human CD137 ECD-mIgG2a [4]) [nM] | koff (human CD137 ECD-mIgG2a [4]) [s⁻¹] | kon (human CD137 ECD-mIgG2a [4]) [M⁻¹ s⁻¹] | Kd (human CD137 ECD-mIgG2a [5]) [nM] | Kd (human CD137 ECD-mIgG2a [6]) [nM] | EC50 [7] [µg/mL]
1 | BE-830 (GPC3 × CD137) (bispecific antibody, human IgG1, kappa, also called CD137×GPC3; GPC3×CD137 multispecific antibody BE-830) heavy: not shown light: DVVMTQSPLSLPVTPGEPASISCRSSQSLVHSNRNTYLHWYLQKPGQSPQLLIYKVSNRFSGVPDRFSGSGSGTDFTLKISRVEAEDVGVYYCSQNTHVPPTFGQGTKLEIKRTVAAPSVFIFPPSDEQLKSGTASVVCLLNNFYPREAKVQWKVDNALQSGNSQESVTEQDSKDSTYSLSSTLTLSKADYEKHKVYACEVTHQGLSSPVTKSFNRGEC | 1.47 | ~0.7 | 182 | – | – | – | – | – | –
2 | A-CD137×CEA-M3 (bispecific antibody, human IgG1, kappa, The chain is therefore built from its pieces) heavy: QVQLVQSGAEVKKPGASVKVSCKASGYIFTSYYLHWVRQAPGQGLEWIGYINPQTGKTSYAQKFQGRVTMTRDTSTSTVYMELSSLRSEDTAVYYCAREYGNYNYPLDYWGQGTLVTVSSASTKGPSVFPLAPSSKSTSGGTAALGCLVKDYFPEPVTVSWNSGALTSGVHTFPAVLQSSGLYSLSSVVTVPSSSLGTQTYICNVNHKPSNTKVDKKVEPKSCDKTHTCPPCPAPPAAGPSVFLFPPKPKDTLMISRTPEVTCVVVDVSHEDPEVKFNWYVDGVEVHNAKTKPREEQYNSTYRVVSVLTVLHQDWLNGKEYKCKVSNKALAAPIEKTISKAKGQPREPQVYTLPPSREEMTKNQVSLTCLVKGFYPSDIAVEWESNGQPENNYKTTPPVLDSDGSFFLYSKLTVDKSRWQQGNVFSCSVMHEALHNHYTQKSLSLSPGKGGGGSEVQLLESGGGLVQPGGSLRLSCAASGFTLSAEDVGWVRQAPGKGLEWVSAILDFGGSTYYAESVKGRFTISRDNAKNTLYLQMSSLRAEDTAVYYCARVVYHAGGGVTFDYWGQGTLVTVSS light: DIQMTQSPSSLSASVGDRVTITCRASENQYGYLAWYQQKPGKVPKLLIYNYKNLVEGVPSRFSGSGSGTDFTLTISSLQPEDVATYYCQHHLGTPYTFGQGTKVEIKRTVAAPSVFIFPPSDEQLKSGTASVVCLLNNFYPREAKVQWKVDNALQSGNSQESVTEQDSKDSTYSLSSTLTLSKADYEKHKVYACEVTHQGLSSPVTKSFNRGEC | – | – | – | 255 | 0.00267 | 10500 | 289 | 255 | 0.52
